Laboratory results taken from patent publication US20240035010, “COMPOSITIONS COMPRISING A VARIANT POLYPEPTIDE AND USES THEREOF” (Arbor Biotechnologies, Inc., published 2024).
Numbering of substitutions follows the chain as printed.

What was measured:
[1] = target: T1, variant nuclease L38G combination (P14R, D32R, I61R, E311R, L38G); assay: cell_activity; PAM 5'-TTTG-3'; details: tags: pcDNA3.1 expression
T1 chain: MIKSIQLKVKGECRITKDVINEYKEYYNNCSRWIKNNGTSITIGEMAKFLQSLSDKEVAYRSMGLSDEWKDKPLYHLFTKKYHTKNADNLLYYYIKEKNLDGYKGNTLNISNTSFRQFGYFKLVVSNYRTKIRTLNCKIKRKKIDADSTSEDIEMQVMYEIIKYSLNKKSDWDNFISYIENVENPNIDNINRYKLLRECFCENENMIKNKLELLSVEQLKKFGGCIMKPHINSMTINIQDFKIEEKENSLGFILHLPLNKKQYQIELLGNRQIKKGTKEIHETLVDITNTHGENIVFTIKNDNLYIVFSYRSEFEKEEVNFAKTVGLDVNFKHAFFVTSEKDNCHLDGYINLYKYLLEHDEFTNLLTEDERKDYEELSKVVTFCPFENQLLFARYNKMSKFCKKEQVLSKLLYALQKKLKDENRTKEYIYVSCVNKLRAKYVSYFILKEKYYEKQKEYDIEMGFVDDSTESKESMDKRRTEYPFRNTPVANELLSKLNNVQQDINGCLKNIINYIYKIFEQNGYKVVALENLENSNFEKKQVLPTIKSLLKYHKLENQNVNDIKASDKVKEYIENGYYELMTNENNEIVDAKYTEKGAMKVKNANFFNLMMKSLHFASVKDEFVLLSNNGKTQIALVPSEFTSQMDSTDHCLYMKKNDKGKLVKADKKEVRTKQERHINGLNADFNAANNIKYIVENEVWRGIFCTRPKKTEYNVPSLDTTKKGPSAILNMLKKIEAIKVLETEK
Method in brief: (§1)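 HEK293T cells were lipofected with nuclease plasmid (pcDNA3.1 backbone) plus RNA guide plasmid, with guide omitted in negative controls. After ~72 h cells were lysed in QuickExtract and % indels were derived from NGS reads, averaged over two bioreplicates and two technical replicates.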

[2] = target: T2, variant nuclease E154G combination (P14R, D32R, I61R, E311R, E154G); assay: cell_activity; PAM 5'-TTTG-3'; details: tags: pcDNA3.1 expression
T2 chain: T1 chain with G38L, E154G
Method in brief: as §1

B1: AAVS1 crRNA ; AAVS1 target (ssRNA ; dsDNA)
RNA: CUUGUUGUAUAUGUCCUUUUAUAGGUAUUAAACAACUGAGAAUGGUGCGUCCUAGG
DNA 1: TGAGAATGGTGCGTCCTAGG
DNA 2: CCTAGGACGCACCATTCTCA
- indel activity [1]: 1.28 fold of WT
- indel activity [2]: 5.79 fold of WT
